{
  "source": "patent US20190382503A1",
  "about": "(published 2019)",
  "key": {"human 5T4 on cells [1]": {"target": "T1, human 5T4 on cells (human, UniProt Q13641 32-420)", "T1 construct": "Human 5T4 on transfected cells (CHO-K1, CT26, B16) or endogenous on human tumour lines; the cell line is named under assay; also called trophoblast glycoprotein; TPBG", "T1 sequence": "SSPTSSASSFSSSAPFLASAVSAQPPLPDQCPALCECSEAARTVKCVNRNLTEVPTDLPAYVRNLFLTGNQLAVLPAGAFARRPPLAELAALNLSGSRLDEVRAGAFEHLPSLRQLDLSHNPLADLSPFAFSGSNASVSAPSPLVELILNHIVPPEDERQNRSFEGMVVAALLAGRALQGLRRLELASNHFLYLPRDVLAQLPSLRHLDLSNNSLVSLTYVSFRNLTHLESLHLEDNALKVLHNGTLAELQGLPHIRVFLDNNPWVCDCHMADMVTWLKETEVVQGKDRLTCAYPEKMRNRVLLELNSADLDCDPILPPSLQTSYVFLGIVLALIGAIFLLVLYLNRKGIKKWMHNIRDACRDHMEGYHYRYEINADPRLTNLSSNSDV", "assay": "flow cytometry, HCT-116 cells, streptavidin-PE, normalized MFI of 2 pooled experiments", "method": "(§1) FACS staining and analysis of 5T4-expressing cell lines: Prior to the FACS staining, all cell lines were characterized for their 5T4 expression levels using a receptor density kit (Quantum Simply Cellular, anti-human IgG, Bangs Laboratories, Inc). Adherent cell lines were cultured according to their supplier's instructions and were harvested from their cell culture flasks using Trypsin/EDTA, counted in R10 medium in a Burker chamber, and diluted in FACS buffer (PBS+0.5% BSA, 0.05% NaN₃) to a concentration of 4×10⁶ cells/mL. 50 μL (0.20×10⁶) of cell solution was added to a 96-well FACS staining plate (Falcon #351190). Cells were incubated for 20 min in 4° C. with 50 μL of the biotinylated ALG.APV-210 (2× final concentration). The antibodies were added in a serial dilution starting at 20 μg/mL titrating down in a 12 step 1/2 dilution down to 0.010 μg/mL. […] Cells were analysed for ALG.APV-210 binding using flow cytometry (FACSVerse) by gating on single cells. MFI values (secondary antibody only subtracted) from 1 out of 2 independent experiments, as well as normalized data and EC₅₀-values of pooled data from 2 experiments were determined and plotted using GraphPad Prism 7, non-linear regression log (agonist) vs. normalized response-variable slope."}, "human CD137 on cells": {"target": "T2, human CD137 on cells (human, UniProt Q07011 24-255)", "T2 construct": "Human CD137 on CHO-K1 transfectants, Jurkat/CD137 reporter cells or CD3-stimulated primary human CD8 T cells; cells named under assay; also called 4-1BB; TNFRSF9", "T2 sequence (Q07011 24-255 limits assumed)": "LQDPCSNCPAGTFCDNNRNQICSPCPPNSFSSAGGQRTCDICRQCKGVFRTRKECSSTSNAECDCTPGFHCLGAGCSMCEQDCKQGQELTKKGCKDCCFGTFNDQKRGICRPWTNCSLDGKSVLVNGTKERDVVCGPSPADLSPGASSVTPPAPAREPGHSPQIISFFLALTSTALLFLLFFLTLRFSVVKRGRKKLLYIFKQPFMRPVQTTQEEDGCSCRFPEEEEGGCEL", "assay": "flow cytometry, CD3-stimulated primary human CD8 T cells (summary of the study)", "method": "FACS staining and analysis of CD8 T cells: Following 48 h of incubation with or without CD3, human and cynomolgus PBMC were harvested, pooled, recounted and diluted in FACS buffer (PBS+0.5% BSA, 0.05% NaN₃) to a concentration of 5×10⁶ cells/mL. 50 μL (0.25×10⁶ cells) of cell solution was added to a 96-well FACS staining plate (Falcon #351190). Following 10 min of Fc-blocking in RT using Beriglobin (hIgG, 200 μg/mL), cells were washed in FACS buffer and then incubated for 1 h in 4° C. with 100 μL of the biotinylated ALG.APV-210 or negative control. The antibodies were added in a serial dilution starting either at 5 μg/mL titrating down in a 12 step 1/3 dilution down to 0.0003 μg/mL (exp 1) or 1 μg/mL titrating down in a 12 step 1/2 dilution down to 0.0005 μg/mL (exp 2). […] Cells were analysed for ALG.APV-210 binding using flow cytometry by gating on viable, single cells expressing CD3 and CD8. MFI values (FMO subtracted) from 2 independent experiments as well as normalized pooled data from 2 experiments and EC₅₀-values were determined and plotted using GraphPad Prism 7, non-linear regression log (agonist) vs. normalized response-variable slope, n=6 donors/group."}, "human 5T4 on cells [2]": {"target": "T1, human 5T4 on cells", "assay": "flow cytometry, JEG cells, streptavidin-PE, normalized MFI of 2 pooled experiments", "method": "as §1"}, "human 5T4 on cells [3]": {"target": "T1, human 5T4 on cells", "assay": "flow cytometry, SKOV-3 cells, streptavidin-PE, normalized MFI of 2 pooled experiments", "method": "(§2) Biotinylation: In order to detect ALG.APV-210 binding to 5T4-expressing cell lines, ALG.APV-210 was first biotinylated. The quality of the biotinylated protein and the impact on binding to its targets was assessed using ELISA.\nas §1, with “concentration).” for “concentration). The antibodies were added in a serial dilution starting at 20 μg/mL titrating down in a 12 step 1/2 dilution down to 0.010 μg/mL.”"}, "human 5T4 on cells [4]": {"target": "T1, human 5T4 on cells", "assay": "flow cytometry, JAR cells, streptavidin-PE, normalized MFI of 2 pooled experiments", "method": "as §2\nas §1, with “concentration).” for “concentration). The antibodies were added in a serial dilution starting at 20 μg/mL titrating down in a 12 step 1/2 dilution down to 0.010 μg/mL.”"}, "human 5T4 on cells [5]": {"target": "T1, human 5T4 on cells", "assay": "flow cytometry, HT-29 cells, streptavidin-PE, normalized MFI of 2 pooled experiments", "method": "as §1"}, "human 5T4 on cells [6]": {"target": "T1, human 5T4 on cells", "assay": "flow cytometry, B16-hu5T4 cells, streptavidin-PE, normalized MFI of 2 pooled experiments", "method": "as §1"}, "[7]": {"target": "T3, CD137 / 4-1BB (soluble antigen, form not stated) (UniProt Q07011 24-186, limits assumed)", "T3 construct": "also called biotinylated 4-1BB antigen; CD137 in ELISA", "assay": "ELISA"}, "human 5T4 on cells [8]": {"target": "T1, human 5T4 on cells", "assay": "flow cytometry, BxPC-3 cells, streptavidin-PE, normalized MFI of 2 pooled experiments", "method": "as §1"}},
  "data": [
    {"binder": "biotinylated ALG.APV-210 (bispecific antibody, biotinylated (sites not given)) EVQLLESGGGLVQPGGSLRLSCAASGFTFSHGSMYWVRQAPGKGLEWVSSISSGSGSTYYADSVKGRFTISHDNSKNTLYLQMNSLRAEDTAVYYCARSSYYGSYYSIDYWGQGTLVTVSSGGGGSGGGGSGGGGSGGGGSDIQMTQSPSSLSASVGDRVTITCRASQSISSYLNWYQQKPGKAPKLLIYAASSLQSGVPSRFSGSGSGTDFTLTISSLQPEDFATYYCQQYYDNLPTFGQGTKLEIKEPKSSDKTHTCPPCPAPEAAGAPSVFLFPPKPKDTLMISRTPEVTCVVVDVSHEDPEVKFNWYVDGVEVHNAKTKPREEQYNSTYRVVSVLTVLHQDWLNGKEYKCAVSNKALPAPIEKTISKAKGQPREPQVYTLPPSRDELTKNQVSLTCLVKGFYPSDIAVEWESNGQPENNYKTTPPVLDSDGSFFLYSKLTVDKSRWQQGNVFSCSVMHEALHNHYTQKSLSLSPGSGGGGSGGGGSGGGGSPSEVQLLESGGGLVQPGGSLRLSCAASGFTFSSYAMSWVRQAPGKCLEWVSAISGSGGSTYYADSVKGRFTISRDNSKNTLYLQMNSLRAEDTAVYYCARYYGGYYSAWMDYWGQGTLVTVSSGGGGSGGGGSGGGGSGGGGSDIQMTQSPSSLSASVGDRVTITCRASQSISSFLNWYQQKPGKAPKLLIYAASSLQSGVPSRFSGSGSGTDFTLTISSLQPEDSATYYCQQTYGYLHTFGCGTKLEIKR", "values": [
      {"measurement": "EC50", "setting": "human 5T4 on cells [1]", "value": 16, "unit": "nM"},
      {"measurement": "EC50", "setting": "human CD137 on cells", "value": 0.2, "unit": "nM"},
      {"measurement": "EC50", "setting": "human 5T4 on cells [2]", "value": 8, "unit": "nM"},
      {"measurement": "EC50", "setting": "human 5T4 on cells [3]", "value": 15, "unit": "nM"},
      {"measurement": "EC50", "setting": "human 5T4 on cells [4]", "value": 9, "unit": "nM"},
      {"measurement": "EC50", "setting": "human 5T4 on cells [5]", "value": 12, "unit": "nM"},
      {"measurement": "EC50", "setting": "human 5T4 on cells [6]", "value": 14, "unit": "nM"},
      {"measurement": "EC50", "setting": "[7]", "value": 0.6, "unit": "nM"},
      {"measurement": "EC50", "setting": "human 5T4 on cells [8]", "value": 20, "unit": "nM"}
    ]}
  ]
}
